Numbering of substitutions follows the chain as printed.
Experiments:
[1] = target: T1, LIG1 wild-type (Cy5-labelled) (human, UniProt P18858 1-919); assay: single-molecule TIRF co-localization; tbound 7.0 ± 0.9 s and 0.7 ± 0.1 s; tunbound 61 ± 2 s; 1 nM LIG1; TIRF: 1 mM HEPES pH 7.4, 20 mM NaCl, 0.02% BSA, 0.002% Tween 20, oxygen scavenger (44 mM glucose, glucose oxidase, catalase), 10 mM Trolox, 1 nM LIG1-Cy5, room; details: protein: recombinant; tags: 6xHis; Cy5 (NHS ester); label: 5'-biotin on S15; 3'-AF488 on S18; blunt 34-bp duplex with one nick between S15 and S18; 3'-A opposite T at nick
[2] = target: T1, LIG1 wild-type (Cy5-labelled); assay: single-molecule TIRF co-localization; tunbound 79 ± 5 s; 1 nM LIG1; TIRF: 1 mM HEPES pH 7.4, 20 mM NaCl, 0.02% BSA, 0.002% Tween 20, oxygen scavenger (44 mM glucose, glucose oxidase, catalase), 10 mM Trolox, 1 nM LIG1-Cy5, room; details: protein: recombinant; tags: 6xHis; Cy5 (NHS ester); label: 5'-biotin on strand 1; 3'-AF488 on S18; blunt 34-bp duplex with one nick between strand 1 and S18; 3'-8oxoG opposite A at nick
[3] = target: LIG1 K845N (Cy5-labelled) (human, UniProt P18858 1-919, K845N); assay: single-molecule TIRF co-localization; long tbound 4 ± 0.7 s; tunbound 113 ± 8 s; similar to its nick binding, mostly nonspecific; 1 nM LIG1; TIRF: 1 mM HEPES pH 7.4, 20 mM NaCl, 0.02% BSA, 0.002% Tween 20, oxygen scavenger (44 mM glucose, glucose oxidase, catalase), 10 mM Trolox, 1 nM LIG1-Cy5, room; details: protein: recombinant; tags: 6xHis; Cy5 (NHS ester); label: 5'-biotin and 3'-AF488 on S1; blunt, no nick
Sequence of LIG1 K845N (Cy5-labelled) (P18858 whole entry K845N): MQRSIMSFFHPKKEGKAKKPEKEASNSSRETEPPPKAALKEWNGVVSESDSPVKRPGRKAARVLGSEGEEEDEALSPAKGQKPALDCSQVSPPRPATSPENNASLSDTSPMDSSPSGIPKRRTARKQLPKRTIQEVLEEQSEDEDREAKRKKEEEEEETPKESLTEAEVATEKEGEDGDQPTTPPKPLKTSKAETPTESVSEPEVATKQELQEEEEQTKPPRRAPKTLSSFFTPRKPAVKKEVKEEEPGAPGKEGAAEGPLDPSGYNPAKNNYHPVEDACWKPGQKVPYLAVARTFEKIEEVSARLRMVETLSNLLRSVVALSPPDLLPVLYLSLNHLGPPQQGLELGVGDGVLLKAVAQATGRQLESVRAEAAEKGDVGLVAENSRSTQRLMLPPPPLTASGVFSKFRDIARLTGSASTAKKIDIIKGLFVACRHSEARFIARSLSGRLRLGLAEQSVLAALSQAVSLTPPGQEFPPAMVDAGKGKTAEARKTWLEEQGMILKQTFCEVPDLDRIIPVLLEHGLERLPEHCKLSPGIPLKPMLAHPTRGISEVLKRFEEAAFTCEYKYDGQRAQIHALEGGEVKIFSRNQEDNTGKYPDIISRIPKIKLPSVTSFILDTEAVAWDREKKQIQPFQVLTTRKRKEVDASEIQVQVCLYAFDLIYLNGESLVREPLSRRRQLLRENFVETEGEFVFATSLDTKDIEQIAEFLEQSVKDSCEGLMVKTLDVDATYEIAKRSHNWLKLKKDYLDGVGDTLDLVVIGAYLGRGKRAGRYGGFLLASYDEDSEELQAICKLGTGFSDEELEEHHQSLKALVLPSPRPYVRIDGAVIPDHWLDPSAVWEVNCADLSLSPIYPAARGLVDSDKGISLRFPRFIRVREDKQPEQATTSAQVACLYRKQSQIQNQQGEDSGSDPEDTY

T1 sequence (P18858 whole entry): as the sequence (P18858 whole entry K845N) above, with N845K counted along it

B1: nick A:T (dsDNA)
DNA 1: CATGGGCGGCATGAACCA
DNA 2: GAGGCCCATCCTCACC
DNA 3: GGTGAGGATGGGCCTCTGGTTCATGCCGCCCATG
modifications: 5'-phosphate on S18 at nick
B1: binds [1].

B2: nick 8oxoG:A (dsDNA)
DNA 1: CATGGGCGGCATGAACCG
DNA 2: GAGGCCCATCCTCACC
DNA 3: B1 DNA 3 with T17A
modifications: 8-oxo-dG at position 18 of strand 1; 5'-phosphate on S18 at nick
B2: binds [2].

B3: no-nick dsDNA (dsDNA)
DNA 1: CATGGGCGGCATGAACCAGAGGCCCATCCTCACC
DNA 2: B1 DNA 3
B3: binds [3].
